# In patent US12528864 (GlaxoSmithKline, dated 2026):
# B1: 42Y073-86F08-66 (antibody)
# heavy: not shown
# light: DIQLTQSPSSLSASVGDRVTITCRASQSISSYLNWYQQKPGKAPKLLIYAASSLQSGVPSRFSGSGSGTDFTLTISSLQPEDFATYYCQQVLHTITFGGGTKVEIKRTVAAPSVFIFPPSDEQLKSGTASVVCLLNNFYPREAKVQWKVDNALQSGNSQESVTEQDSKDSTYSLSSTLTLSKADYEKHKVYACEVTHQGLSSPVTKSFNRGEC
# notes: also called GSK 6097608; GSK6097608
# Columns and labels:
# [1] = biological target: T1, human CD96v1 on transiently transfected HEK cells (human, UniProt P40200 22-585); assay: flow cytometry on transiently transfected HEK cells (Human CD96v1)
# T1 construct: whole, on cells
# T1 sequence (looked up): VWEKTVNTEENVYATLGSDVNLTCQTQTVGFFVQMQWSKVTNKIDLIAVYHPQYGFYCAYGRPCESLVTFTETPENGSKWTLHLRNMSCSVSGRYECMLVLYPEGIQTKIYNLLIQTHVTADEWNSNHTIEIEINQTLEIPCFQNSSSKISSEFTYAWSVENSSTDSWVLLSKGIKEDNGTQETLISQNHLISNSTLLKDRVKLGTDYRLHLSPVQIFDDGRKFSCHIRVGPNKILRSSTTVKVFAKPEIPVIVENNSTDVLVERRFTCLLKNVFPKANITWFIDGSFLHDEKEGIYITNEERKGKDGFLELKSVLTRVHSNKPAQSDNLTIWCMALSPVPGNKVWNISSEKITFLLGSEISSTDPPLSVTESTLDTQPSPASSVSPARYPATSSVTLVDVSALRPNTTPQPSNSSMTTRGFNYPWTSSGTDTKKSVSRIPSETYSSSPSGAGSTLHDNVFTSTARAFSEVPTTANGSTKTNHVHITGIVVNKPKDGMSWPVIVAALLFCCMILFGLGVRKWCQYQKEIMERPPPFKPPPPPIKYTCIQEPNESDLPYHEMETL
# [2] = biological target: T2, cynomolgus monkey CD96v2 expressed on cells (CHO cells; transiently transfected HEK cells) (cynomolgus monkey, UniProt A0A2K5TWV6 22-569); assay: flow cytometry on transiently transfected HEK cells; geometric mean, n = 3
# T2 construct: the cell is named under assay; also called CHO-cyCD96; Cyno CD96v2
# T2 sequence: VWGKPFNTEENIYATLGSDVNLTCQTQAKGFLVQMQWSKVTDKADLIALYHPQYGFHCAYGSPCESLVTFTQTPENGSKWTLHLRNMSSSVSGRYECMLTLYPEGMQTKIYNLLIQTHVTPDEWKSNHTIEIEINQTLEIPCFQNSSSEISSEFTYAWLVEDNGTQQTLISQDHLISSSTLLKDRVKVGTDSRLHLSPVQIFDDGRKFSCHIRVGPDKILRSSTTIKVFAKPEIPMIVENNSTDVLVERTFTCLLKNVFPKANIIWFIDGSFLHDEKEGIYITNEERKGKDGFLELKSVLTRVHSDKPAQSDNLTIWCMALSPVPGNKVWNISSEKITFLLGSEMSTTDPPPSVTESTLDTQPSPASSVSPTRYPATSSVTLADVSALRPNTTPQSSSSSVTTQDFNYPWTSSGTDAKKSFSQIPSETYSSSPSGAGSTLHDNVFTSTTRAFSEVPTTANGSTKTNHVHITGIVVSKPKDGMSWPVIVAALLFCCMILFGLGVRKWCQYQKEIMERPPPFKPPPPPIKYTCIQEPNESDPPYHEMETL
# [3] = biological target: T1, human CD96v1 on transiently transfected …; assay: as above
# [4] = biological target: T3, blood derived cynomolgus monkey CD96v2 on transiently transfected HEK cells (cynomolgus monkey); assay: as above
# T3 construct: also called Blood derived Cyno CD96v2
binder,measurement,setting,value
B1,EC50 (read off the curve),[1],~6 nM
same,EC50,[2],7.88 nM
same,EC50,[3],5.28 nM
same,EC50,[4],7.34 nM
